Positions count from the first letter of the chain named. Numbers in names are those of the source.
T1: EsCas13d, nuclease-dead (Eubacterium siraeum, UniProt B0MS50, R295A;H300A;R849A;H854A)
T1 sequence: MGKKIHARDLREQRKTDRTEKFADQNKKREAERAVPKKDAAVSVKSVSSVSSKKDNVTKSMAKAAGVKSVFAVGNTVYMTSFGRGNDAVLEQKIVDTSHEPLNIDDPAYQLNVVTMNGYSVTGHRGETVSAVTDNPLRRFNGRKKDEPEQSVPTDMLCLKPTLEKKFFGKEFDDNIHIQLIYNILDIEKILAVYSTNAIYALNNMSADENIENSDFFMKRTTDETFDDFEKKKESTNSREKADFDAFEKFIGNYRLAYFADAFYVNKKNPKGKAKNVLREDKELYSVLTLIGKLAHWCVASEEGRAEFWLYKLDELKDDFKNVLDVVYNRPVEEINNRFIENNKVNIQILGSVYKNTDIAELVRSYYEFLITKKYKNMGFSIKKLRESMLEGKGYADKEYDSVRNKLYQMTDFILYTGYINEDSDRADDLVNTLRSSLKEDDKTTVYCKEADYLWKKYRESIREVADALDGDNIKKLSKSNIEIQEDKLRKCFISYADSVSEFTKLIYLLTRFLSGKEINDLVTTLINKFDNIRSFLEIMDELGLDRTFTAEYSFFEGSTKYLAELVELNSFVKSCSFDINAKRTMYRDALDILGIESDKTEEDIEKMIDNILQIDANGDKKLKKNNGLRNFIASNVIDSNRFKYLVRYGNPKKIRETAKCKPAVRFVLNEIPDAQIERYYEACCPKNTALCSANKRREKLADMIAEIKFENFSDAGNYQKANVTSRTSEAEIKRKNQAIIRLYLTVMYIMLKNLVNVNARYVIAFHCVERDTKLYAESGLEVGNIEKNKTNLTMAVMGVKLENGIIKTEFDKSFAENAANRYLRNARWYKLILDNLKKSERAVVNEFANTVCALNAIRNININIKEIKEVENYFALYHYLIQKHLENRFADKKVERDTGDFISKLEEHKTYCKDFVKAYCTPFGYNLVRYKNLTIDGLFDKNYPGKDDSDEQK

B1: target 1 insU 3' of 15,insA 3' of 7 (mixed)
RNA 1: CACCCGUGCAAAAAUGCAGGGGUCUAAAACUGAGCGGAUAACCUCUCUAUGG
RNA 2: GGGAAUGGAUCCACAUCUACGAAUUCGUACCAUAGAGUAGGUUAUCACGCUCACCGAGAUCGGAAGAGCACACGU
B2: target 1 del8,del11 (mixed)
RNA 1: B1 RNA 1
RNA 2: GGGAAUGGAUCCACAUCUACGAAUUCGUACCAUAGAGAGGUACCGCUCACCGAGAUCGGAAGAGCACACGU
B3: target 1 G15A,A16G (mixed)
RNA 1: B1 RNA 1
RNA 2: GGGAAUGGAUCCACAUCUACGAAUUCGUACCAUAGGAAGGUUAUCCGCUCACCGAGAUCGGAAGAGCACACGU
B4: target 1 insC 3' of 18,insU 3' of 4 (mixed)
RNA 1: B1 RNA 1
RNA 2: B1 RNA 2 with G35C, A36G, G37A, U38G, A47C, C48G, G49C, C50U
B5: target 1 insA 3' of 11,insG 3' of 8 (mixed)
RNA 1: B1 RNA 1
RNA 2: B1 RNA 2 with U38A, A39G, G41U, U42A, C46G, A47C
B6: target 1 C4A,C7G (mixed)
RNA 1: B1 RNA 1
RNA 2: B3 RNA 2 with G36A, A37G, C45G, C48A
B7: target 1 C4U,C7A (mixed)
RNA 1: B1 RNA 1
RNA 2: B3 RNA 2 with G36A, A37G, C45A, C48U
B8: target 1 A14G,U19C (mixed)
RNA 1: B1 RNA 1
RNA 2: B3 RNA 2 with U33C, G36A, A37G, A38G
B9: target 1 insC 3' of 14,insG 3' of 2 (mixed)
RNA 1: B1 RNA 1
RNA 2: B1 RNA 2 with U38A, A39C, A47C, C48G, G49C, C50U, U51C, C52G
B10: target 1 C6A,G12U (mixed)
RNA 1: B1 RNA 1
RNA 2: B3 RNA 2 with G36A, A37G, G40U, C46A
B11: target 1 insG 3' of 14,insC 3' of 9 (mixed)
RNA 1: B1 RNA 1
RNA 2: B1 RNA 2 with U38A, A39G, U45C, C46U, A47C
B12: target 1 insU 3' of 14,insG 3' of 2 (mixed)
RNA 1: B1 RNA 1
RNA 2: B1 RNA 2 with U38A, A39U, A47C, C48G, G49C, C50U, U51C, C52G
B13: target 1 insU 3' of 20,insG 3' of 8 (mixed)
RNA 1: B1 RNA 1
RNA 2: B1 RNA 2 with A34U, G35A, A36G, G37A, U38G, C46G, A47C
B14: target 1 C7G,A16C (mixed)
RNA 1: B1 RNA 1
RNA 2: B3 RNA 2 with G36C, A37G, C45G
B15: target 1 insC 3' of 17,insU 3' of 7 (mixed)
RNA 1: B1 RNA 1
RNA 2: B1 RNA 2 with A36C, G37A, U38G, A47U
B16: target 1 U3G,C7G (mixed)
RNA 1: B1 RNA 1
RNA 2: B3 RNA 2 with G36A, A37G, C45G, U49G
B17: target 1 insG 3' of 21 (mixed)
RNA 1: B1 RNA 1
RNA 2: GGGAAUGGAUCCACAUCUACGAAUUCGUACCGAUAGAGAGGUUAUCCGCUCACCGAGAUCGGAAGAGCACACGU
B18: target 1 insG 3' of 21,insC 3' of 9 (mixed)
RNA 1: B1 RNA 1
RNA 2: GGGAAUGGAUCCACAUCUACGAAUUCGUACCGAUAGAGAGGUUACUCCGCUCACCGAGAUCGGAAGAGCACACGU
B19: target 1 insG 3' of 19,insU 3' of 2 (mixed)
RNA 1: B1 RNA 1
RNA 2: GGGAAUGGAUCCACAUCUACGAAUUCGUACCAUGAGAGAGGUUAUCCGCUCUACCGAGAUCGGAAGAGCACACGU
B20: target 1 insU 3' of 22,insU 3' of 7 (mixed)
RNA 1: B1 RNA 1
RNA 2: B18 RNA 2 with C31U, G32C, C45U, U46C, C47U
B21: target 1 A9C,G12U (mixed)
RNA 1: B1 RNA 1
RNA 2: B3 RNA 2 with G36A, A37G, G40U, A43C
B22: target 1 U8A,U11C (mixed)
RNA 1: B1 RNA 1
RNA 2: B3 RNA 2 with G36A, A37G, U41C, U44A
B23: target 1 insC 3' of 20,insG 3' of 16 (mixed)
RNA 1: B1 RNA 1
RNA 2: B18 RNA 2 with G32A, A33C, A39G, G40A, U42G, A44U, C45A
B24: target 1 insU 3' of 20,insU 3' of 14 (mixed)
RNA 1: B1 RNA 1
RNA 2: B18 RNA 2 with G32A, A33U, G40U, U42G, A44U, C45A
B25: target 1 insG 3' of 14,insU 3' of 4 (mixed)
RNA 1: B1 RNA 1
RNA 2: B1 RNA 2 with U38A, A39G, A47C, C48G, G49C, C50U
B26: target 1 insG 3' of 10,insU 3' of 2 (mixed)
RNA 1: B1 RNA 1
RNA 2: B19 RNA 2 with G34A, A35G, G36A, A37G, G38A, A39G, G41U, U43G
B27: target 1 insC 3' of 15,insA 3' of 11 (mixed)
RNA 1: B1 RNA 1
RNA 2: B1 RNA 2 with U38C, U43A, A44U, U45A, C46U, A47C
B28: target 1 insA 3' of 21,insA 3' of 2 (mixed)
RNA 1: B1 RNA 1
RNA 2: B19 RNA 2 with U33A, G34U, U52A
B29: target 1 del5,del11 (mixed)
RNA 1: B1 RNA 1
RNA 2: B2 RNA 2 with C43U, G45C
B30: target 1 insC 3' of 15,insU 3' of 12 (mixed)
RNA 1: B1 RNA 1
RNA 2: B1 RNA 2 with U38C, A44U, U45A, C46U, A47C
B31: target 1 insA 3' of 21,insC 3' of 1 (mixed)
RNA 1: B1 RNA 1
RNA 2: B19 RNA 2 with U33A, G34U, U52A, A53C
B32: target 1 U11C,G13A (mixed)
RNA 1: B1 RNA 1
RNA 2: B3 RNA 2 with G36A, A37G, G39A, U41C
B33: target 1 C2A,U11G (mixed)
RNA 1: B1 RNA 1
RNA 2: B3 RNA 2 with G36A, A37G, U41G, C50A

Each binder was assayed against T1, EsCas13d, nuclease-dead (assay: crRNA (strand 1, pre-loaded); Mg2+; 40 mM Tris-HCl pH 7.5, 150 mM NaCl, 6 mM MgCl2, 1 mM DTT, 0.1% Tween-20, 0.2 mg/ml BSA; 25 C; 10 min per concentration, then washed). Details: tags: His6-TwinStrep-SUMO cleaved; N-terminal SNAP kept (SNAP-Surface 488); label: 3' end held by stalled T7 RNA polymerase.
B1 showed a Kd of 8.2 ± 0.6 nM.
Work on B2 yielded a Kd of 25.7 ± 1.7 nM.
For B3, the Kd was 51 ± 5 nM.
B4 showed a Kd of 25.8 ± 1.8 nM.
B5 was tested, and the Kd was 35.6 ± 2.3 nM.
B6 was tested, and the Kd was 9.6 ± 0.4 nM.
Work on B7 yielded a Kd of 11.2 ± 0.8 nM.
For B8, the Kd was 63 ± 14 nM.
In the case of B9, the Kd is reported as 62 ± 23 nM.
With B10 the Kd was 10.7 ± 0.5 nM.
For B11, the Kd was 12.7 ± 0.6 nM.
For B12, the Kd was 44 ± 7 nM.
For B13, the Kd was 20.4 ± 1.6 nM.
Binder B14 has a Kd of 63 ± 6 nM.
In the case of B15, the Kd is reported as 57 ± 6 nM.
Work on B16 yielded a Kd of 6.04 ± 0.33 nM.
In the case of B17, the Kd is reported as 67 ± 10 nM.
Work on B18 yielded a Kd of 83 ± 16 nM.
In the case of B19, the Kd is reported as 57 ± 13 nM.
For B20, the Kd was 43 ± 4 nM.
B21 was tested, and the Kd was 19.3 ± 1.2 nM.
B22 was tested, and the Kd was 12.6 ± 0.9 nM.
Work on B23 yielded a Kd of 11.8 ± 0.9 nM.
With B24 the Kd was 53 ± 21 nM.
B25 gave a Kd of 11.7 ± 1.1 nM.
B26 gave a Kd of 24.7 ± 1.7 nM.
B27 showed a Kd of 79 ± 18 nM.
B28 gave a Kd of 17.7 ± 1 nM.
Binder B29 has a Kd of 30 ± 1.5 nM.
B30 showed a Kd of 14.6 ± 0.9 nM.
Binder B31 has a Kd of 13.7 ± 0.7 nM.
Binder B32 has a Kd of 8.7 ± 1.3 nM.
B33 was tested, and the Kd was 16.6 ± 1 nM.

Source: publication PMC10786891, “Massively parallel profiling of RNA-targeting CRISPR-Cas13d”
